B1: CD33-(K334C/K392C) antibody (unconjugated) (antibody, human IgG1)
heavy: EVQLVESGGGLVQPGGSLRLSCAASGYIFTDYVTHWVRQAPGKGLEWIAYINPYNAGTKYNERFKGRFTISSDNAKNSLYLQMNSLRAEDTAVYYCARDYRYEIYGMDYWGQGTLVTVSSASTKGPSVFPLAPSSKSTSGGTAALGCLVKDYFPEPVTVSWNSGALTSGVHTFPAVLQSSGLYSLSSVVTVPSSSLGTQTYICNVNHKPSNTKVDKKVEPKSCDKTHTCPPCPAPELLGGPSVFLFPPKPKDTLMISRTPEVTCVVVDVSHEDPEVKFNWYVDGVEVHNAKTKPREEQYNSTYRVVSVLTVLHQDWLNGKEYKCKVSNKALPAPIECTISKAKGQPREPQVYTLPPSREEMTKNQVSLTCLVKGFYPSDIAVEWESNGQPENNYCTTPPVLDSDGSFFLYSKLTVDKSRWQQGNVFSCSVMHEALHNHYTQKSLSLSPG
light: DIQLTQSPSSLSASVGDRVTITCRASSSVGYMHWYQQKPGKAPKLLIYDTSQLASGVPSRFSGSGSGTDFTLTISSLQPEDFATYYCQLWSSNPLTFGGGTKVEIKRTVAAPSVFIFPPSDEQLKSGTASVVCLLNNFYPREAKVQWKVDNALQSGNSQESVTEQDSKDSTYSLSSTLTLSKADYEKHKVYACEVTHQGLSSPVTKSFNRGEC
notes: Human IgG1 with engineered Cys at heavy chain positions 334 and 392 (Eu index of Kabat); also called CD33-(K334C/K392C)-human IgG1 antibody
B2: CD33-(K334C/K392C)-CPI (CD33-(K334C/K392C)-MalPeg6-vc-PABC-DMAE-CPI ADC) (antibody, human IgG1)
heavy: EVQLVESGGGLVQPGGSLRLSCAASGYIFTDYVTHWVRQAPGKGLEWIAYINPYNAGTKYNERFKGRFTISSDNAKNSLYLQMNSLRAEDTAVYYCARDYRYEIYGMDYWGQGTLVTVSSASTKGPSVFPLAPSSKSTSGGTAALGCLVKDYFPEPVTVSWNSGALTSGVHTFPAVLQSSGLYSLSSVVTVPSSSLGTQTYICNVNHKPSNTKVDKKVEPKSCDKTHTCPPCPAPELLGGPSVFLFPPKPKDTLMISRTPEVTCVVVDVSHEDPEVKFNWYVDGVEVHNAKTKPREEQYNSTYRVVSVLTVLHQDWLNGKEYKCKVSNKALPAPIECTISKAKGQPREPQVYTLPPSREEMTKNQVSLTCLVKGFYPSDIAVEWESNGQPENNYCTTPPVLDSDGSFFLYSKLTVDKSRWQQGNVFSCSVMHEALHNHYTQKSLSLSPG
light: B1 light
modifications: linker-payload MalPeg6-vc-PABC-DMAE-CPI (LP7) on engineered Cys 334 and Cys 392 (Eu index of Kabat); DAR 4.0
notes: Antibody drug conjugate, human IgG1

Key:
[1] = biological target: T1, human Fc-gamma receptor I (CD64) (human, UniProt P12314 16-288, limits assumed); experiment: SPR (BIAcore), antibody captured on immobilized CD33 ECD, receptor injected; kinetic fit
T1 construct: Soluble receptor injected over captured antibody; also called FcγRI (CD64)
Method: (§1) Various concentrations of the Fcγ receptors FcγIIa (CD32a), FcγIIb(CD32b), FcγIIIa (CD16a) and FcγRI (CD64) were injected over the surface and binding was determined.

[2] = biological target: T2, human Fc-gamma receptor IIa (CD32a) (human, UniProt P12318 34-217); experiment: SPR (BIAcore), antibody captured on immobilized CD33 ECD, receptor injected; steady state fit
T2 construct: Soluble receptor injected over captured antibody; also called FcγIIa (CD32a)
T2 sequence (looked up): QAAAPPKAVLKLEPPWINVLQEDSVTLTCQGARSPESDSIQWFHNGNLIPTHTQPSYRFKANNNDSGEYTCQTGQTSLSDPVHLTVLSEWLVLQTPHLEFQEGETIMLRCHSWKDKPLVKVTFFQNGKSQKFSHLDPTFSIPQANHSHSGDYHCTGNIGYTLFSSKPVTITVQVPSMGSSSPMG
Method: as §1

[3] = biological target: T3, human Fc-gamma receptor IIb (CD32b) (human, UniProt P31994 43-217); experiment: as above
T3 construct: Soluble receptor injected over captured antibody; also called FcγIIb(CD32b)
T3 sequence (looked up): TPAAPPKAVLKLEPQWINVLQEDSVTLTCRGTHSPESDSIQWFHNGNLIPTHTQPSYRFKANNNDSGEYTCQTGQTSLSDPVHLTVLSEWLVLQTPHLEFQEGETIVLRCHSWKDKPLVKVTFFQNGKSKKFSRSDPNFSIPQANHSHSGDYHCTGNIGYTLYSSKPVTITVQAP
Method: as §1

[4] = biological target: T4, human Fc-gamma receptor IIIa (CD16a) (human, UniProt P08637 17-208); experiment: as above
T4 construct: Soluble receptor injected over captured antibody; also called FcγIIIa (CD16); FcγIIIa (CD16a)
Method: as §1

[5] = biological target: T5, human FcRn, biotinylated through an engineered Avi-tag (human, UniProt P55899 24-297; P61769 21-119); experiment: SPR (BIAcore), steady-state, pH 6.0; biotinylated human FcRn on streptavidin chip, antibody injected
T5 construct: not shown: engineered Avi-tag

[6] = biological target: T1, human Fc-gamma receptor I (CD64); experiment: SPR (BIAcore), ADC captured on immobilized CD33 ECD, receptor injected; kinetic fit
Method: as §1

[7] = biological target: T2, human Fc-gamma receptor IIa (CD32a); experiment: SPR (BIAcore), ADC captured on immobilized CD33 ECD, receptor injected; steady state fit
Method: as §1

[8] = biological target: T3, human Fc-gamma receptor IIb (CD32b); experiment: as above
Method: as §1

[9] = biological target: T4, human Fc-gamma receptor IIIa (CD16a); experiment: as above
Method: as §1

[10] = biological target: T5, human FcRn, biotinylated through an …; experiment: SPR (BIAcore), steady-state, pH 6.0; biotinylated human FcRn on streptavidin chip, ADC injected
From the text: BIAcore® technology utilizes changes in the refractive index at the surface layer of a sensor upon binding of the anti-CD33 derived monoclonal antibodies or their respective ADCs to human FcRn protein immobilized on the layer. Binding was detected by surface plasmon resonance (SPR) of laser light refracting from the surface. Human FcRn was specifically biotinylated through an engineered Avi-tag using the BirA reagent (Catalog #: BIRA500, Avidity, LLC, Aurora, Colo.) and immobilized onto a streptavidin (SA) sensor chip to enable uniform orientation of the FcRn protein on the sensor.

T1 sequence (P12314 16-288 limits assumed): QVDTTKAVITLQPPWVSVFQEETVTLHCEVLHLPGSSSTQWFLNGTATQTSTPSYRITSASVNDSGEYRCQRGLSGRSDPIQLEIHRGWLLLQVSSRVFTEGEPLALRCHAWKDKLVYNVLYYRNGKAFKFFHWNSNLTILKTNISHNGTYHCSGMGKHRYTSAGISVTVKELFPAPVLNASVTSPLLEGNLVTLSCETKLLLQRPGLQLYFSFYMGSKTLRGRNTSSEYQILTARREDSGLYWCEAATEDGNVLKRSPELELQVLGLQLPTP
T5 sequence (P55899 24-297 limits assumed, change not shown, chain 1 of 2): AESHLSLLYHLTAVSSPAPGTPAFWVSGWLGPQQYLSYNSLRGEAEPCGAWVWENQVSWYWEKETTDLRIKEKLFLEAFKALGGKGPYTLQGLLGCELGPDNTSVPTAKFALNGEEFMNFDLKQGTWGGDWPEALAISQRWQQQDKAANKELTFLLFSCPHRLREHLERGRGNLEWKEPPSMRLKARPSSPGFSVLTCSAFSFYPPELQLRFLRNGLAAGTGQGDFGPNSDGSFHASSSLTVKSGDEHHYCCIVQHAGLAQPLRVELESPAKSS
T5 sequence (P61769 21-119 limits assumed, change not shown, chain 2 of 2): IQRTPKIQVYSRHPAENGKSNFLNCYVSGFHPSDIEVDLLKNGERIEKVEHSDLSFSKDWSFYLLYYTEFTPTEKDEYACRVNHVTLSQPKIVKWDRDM
T4 sequence (P08637 17-208 limits assumed): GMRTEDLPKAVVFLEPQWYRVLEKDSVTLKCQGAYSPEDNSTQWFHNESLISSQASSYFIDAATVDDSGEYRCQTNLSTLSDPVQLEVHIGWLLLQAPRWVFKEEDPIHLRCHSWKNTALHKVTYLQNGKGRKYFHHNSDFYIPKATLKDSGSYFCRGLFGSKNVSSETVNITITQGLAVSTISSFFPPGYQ

| Binder | Kd [1] | Kd [2] | Kd [3] | Kd [4] | Kd [5] | Kd [6] | Kd [7] | Kd [8] | Kd [9] | Kd [10] |
| --- | --- | --- | --- | --- | --- | --- | --- | --- | --- | --- |
| B1 | 0.02 nM | 900 nM | 3460 nM | 210 nM | 964 nM | – | – | – | – | – |
| B2 | – | – | – | – | – | 0.17 nM | 12900 nM | 20100 nM | 5650 nM | 1220 nM |

From US20190099499A1 (Pfizer, published 2019)
